Test results as given in patent US20230372448A1, “THERAPEUTIC USE OF LONG-ACTING CONJUGATE OF TRIPLE AGONIST ACTING ON ALL OF GLUCAGON, GLP-1 AND GIP RECEPTORS AGAINST MULTIPLE SCLEROSIS” (HANMI PHARM. CO. ,LTD., priority 2020, published 2023).
Positions of bridges follow the written chain, without caps; N, C: chain ends. Non-standard residues stand in square brackets, D forms with d. No end group written: not given here. *: point of attachment. Acetyl(2-(4-imidazolyl)) = O=C(Cc1c[nH]cn1)*; Aib = CC(C)(N)C(=O)O

How the values were obtained:
Assay in all cases: cell-based or functional assay
[1] = target: human GCG receptor (human, UniProt P47871 26-477)
[2] = target: T1, human GIP receptor (human, UniProt P48546 22-466)
T1 sequence (looked up): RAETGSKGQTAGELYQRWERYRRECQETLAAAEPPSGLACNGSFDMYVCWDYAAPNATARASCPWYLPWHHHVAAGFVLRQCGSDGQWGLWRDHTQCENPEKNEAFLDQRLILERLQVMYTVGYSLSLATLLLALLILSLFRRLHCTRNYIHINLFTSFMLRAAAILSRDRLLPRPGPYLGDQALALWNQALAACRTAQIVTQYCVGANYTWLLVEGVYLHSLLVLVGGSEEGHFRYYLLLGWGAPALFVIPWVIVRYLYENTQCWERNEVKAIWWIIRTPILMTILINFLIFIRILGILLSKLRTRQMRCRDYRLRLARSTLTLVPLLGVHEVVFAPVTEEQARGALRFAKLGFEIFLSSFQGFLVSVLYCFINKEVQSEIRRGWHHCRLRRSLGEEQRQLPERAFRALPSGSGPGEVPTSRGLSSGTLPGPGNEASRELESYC

[3] = target: human GLP-1 receptor (human, UniProt P43220 24-463)

Chain of human GCG receptor (P47871 26-477): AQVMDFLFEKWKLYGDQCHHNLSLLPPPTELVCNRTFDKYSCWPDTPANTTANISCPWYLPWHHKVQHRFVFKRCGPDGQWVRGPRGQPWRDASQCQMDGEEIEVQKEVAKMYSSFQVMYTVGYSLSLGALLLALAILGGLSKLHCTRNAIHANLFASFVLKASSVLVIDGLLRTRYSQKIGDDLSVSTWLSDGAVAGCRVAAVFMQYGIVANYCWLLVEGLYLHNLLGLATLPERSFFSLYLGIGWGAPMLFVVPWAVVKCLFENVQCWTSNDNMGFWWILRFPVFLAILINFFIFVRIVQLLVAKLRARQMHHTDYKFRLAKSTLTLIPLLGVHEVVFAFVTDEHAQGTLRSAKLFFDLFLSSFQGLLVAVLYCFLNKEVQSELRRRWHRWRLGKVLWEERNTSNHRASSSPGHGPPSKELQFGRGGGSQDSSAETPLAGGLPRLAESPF

Binder | In vitro activity (%) compared with native peptide: vs Glucagon [1] | In vitro activity (%) compared with native peptide: vs GIP [2] | In vitro activity (%) compared with native peptide: vs GLP-1 [3]
Y[Aib]QGTFTSDYSKYLDECRAKEFVQWLLAQKGKKNDWKHNIT (bridge 16-20; not fully specified) [triple agonist of SEQ ID NO: 23] | 9.3% | < 0.1% | 4.01%
{Acetyl(2-(4-imidazolyl))}-GQGTFTSDYSIQLDEIAVRDFVEWLKNGGPSSGAPPPSHG (not fully specified; also: ring from underlined residues, positions not shown) [triple agonist of SEQ ID NO: 14] | < 0.1% | < 0.1% | 28%
Y[Aib]QGTFTSDYSKYLDECRAKEFVQWLKNGGPSSGAPPPS (bridge 16-20) [triple agonist of SEQ ID NO: 24] | 9.3% | < 0.1% | 41.2%
{Acetyl(2-(4-imidazolyl))}-GQGTFTSDLSIQYDSEHQRDFIEWLKDTGPSSGAPPPSHG (not fully specified; also: ring from underlined residues, positions not shown) [triple agonist of SEQ ID NO: 19] | < 0.1% | < 0.1% | < 0.1%
Y[Aib]QGTFTSDYSKYLDECRAKEFVQWLLDHHPSSGQPPPS (bridge 16-20; not fully specified) [triple agonist of SEQ ID NO: 21] | 267% | 22.7% | 17.8%
H[Aib]QGTFTSDVSSYLLGQAAKQFIAWLVKGGGPSSGAPPPSC (not fully specified) [triple agonist of SEQ ID NO: 3] | < 0.1% | < 0.1% | 1.8%
{Acetyl(2-(4-imidazolyl))}-GQGTFTSDLSKQMDSEAQQLFIEWLKNGGPSSGAPPPSHG (not fully specified; also: ring from underlined residues, positions not shown) [triple agonist of SEQ ID NO: 16] | < 0.1% | < 0.1% | 2.1%
H[Aib]QGTFTSDVSSYLDGQAQKEFIAWLVKGC (not fully specified) [triple agonist of SEQ ID NO: 2] | < 0.1% | < 0.1% | 5.9%
H[Aib]QGTFTSDYSKYLDEKAAKEFVQWLLNTC (bridge 16-20; not fully specified) [triple agonist of SEQ ID NO: 29] | 6% | < 0.1% | 38.5%
Y[Aib]QGTFTSDYSKCLDEKRAKEFVQWLLDHHPSSGQPPPS (bridge 16-20; not fully specified) [triple agonist of SEQ ID NO: 22] | 140% | 59.7% | 20.1%
{Acetyl(2-(4-imidazolyl))}-GQGTFTSDLSKQMDEERAREFIEWLLAQKPSSGAPPPSHG (not fully specified; also: ring from underlined residues, positions not shown) [triple agonist of SEQ ID NO: 17] | < 0.1% | < 0.1% | 0.2%
{Acetyl(2-(4-imidazolyl))}-GQGTFTSDLSKQMDSERAREFIEWLKNTGPSSGAPPPSHG (not fully specified; also: ring from underlined residues, positions not shown) [triple agonist of SEQ ID NO: 18] | < 0.1% | < 0.1% | < 0.1%
{Acetyl(2-(4-imidazolyl))}-GQGTFTSDLSIQYEEEAQQDFVEWLKDTGPSSGAPPPSHG (not fully specified; also: ring from underlined residues, positions not shown) [triple agonist of SEQ ID NO: 20] | < 0.1% | < 0.1% | < 0.1%
H[Aib]QGTFTSDCSKYLDERAAQDFVQWLLDGGPSSGAPPPS (not fully specified) [triple agonist of SEQ ID NO: 25] | 0.1% | < 0.1% | 82.6%
H[Aib]QGTFTSDYSKYLDERACQDFVQWLLDQGGPSSGAPPPS (not fully specified) [triple agonist of SEQ ID NO: 27] | 0.8% | 0.9% | 83.1%
H[Aib]QGTFTSDYSKYLDEKRAQEFVCWLLAQKGKKNDWKHNIT (not fully specified) [triple agonist of SEQ ID NO: 28] | 1.6% | < 0.1% | 17.2%
H[Aib]QGTFTSDYSKYLDEKAQKEFVQWLLDTC (bridge 16-20; not fully specified) [triple agonist of SEQ ID NO: 30] | 0.7% | 0.8% | 142%
H[Aib]QGTFTSDCSKYLDSRAAQDFVQWLLDGGPSSGAPPPS (not fully specified) [triple agonist of SEQ ID NO: 26] | 0.2% | < 0.1% | 64.5%
{Acetyl(2-(4-imidazolyl))}-GEGTFISDYSIQLDEIAVQDFVEWLLAQKPSSGAPPPSHG (not fully specified; also: ring from underlined residues, positions not shown) [triple agonist of SEQ ID NO: 13] | < 0.1% | < 0.1% | < 0.1%
